PMC5052646, “DNA annealing by Redβ is insufficient for homologous recombination and the additional requirements involve intra- and inter-molecular interactions” (Scientific Reports, 2016)

Experiments:
[1] = molecular target: T1, wt Redβ, Strep-tag II tagged, purified (λ phage), P03698; test: ITC; Redα (150 μM) injected in 2 μl steps at 3 min intervals into the cell with Redβ (15 μM); 25 °C; 20 mM HEPES, 150 mM sodium chloride, 1 mM magnesium chloride, 0.5 mM TECP, pH 8; single-site binding model; conditions: remark: other sources report otherwise
T1 chain: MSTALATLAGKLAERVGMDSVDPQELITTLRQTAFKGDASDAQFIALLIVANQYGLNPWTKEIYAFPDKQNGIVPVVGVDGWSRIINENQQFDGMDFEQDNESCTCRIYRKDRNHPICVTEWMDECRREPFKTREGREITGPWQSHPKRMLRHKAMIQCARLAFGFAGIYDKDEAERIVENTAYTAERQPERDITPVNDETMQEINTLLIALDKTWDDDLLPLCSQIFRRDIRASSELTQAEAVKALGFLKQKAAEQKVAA

[2] = molecular target: the molecule itself; test: SEC-MALS; SEC peaks analysed by DLS and SLS/MALS (Dawn Heleos II); purified Redβ proteins injected at 1 mg/ml; species after elution (dilution); without DNA
[3] = molecular target: T2, C3Redβ (phage lambda, UniProt P03698 1-185); test: EMSA; 10 uM protein, 1 uM DNA; weak ssDNA binding (smear), non-complementary Cy5 oligo added; EMSA: 10 uM protein, 1 uM DNA, 20 mM Tris-HCl pH 7.5, 10 mM NaCl, 10 mM MgCl2, 37 C 30 min (+30 min after complementary oligo), 1.2-1.6% agarose, 2x TBE; conditions: protein: recombinant; tags: Strep-tag II; N-terminal per Methods, C-terminal per legends; single strand
T2 sequence: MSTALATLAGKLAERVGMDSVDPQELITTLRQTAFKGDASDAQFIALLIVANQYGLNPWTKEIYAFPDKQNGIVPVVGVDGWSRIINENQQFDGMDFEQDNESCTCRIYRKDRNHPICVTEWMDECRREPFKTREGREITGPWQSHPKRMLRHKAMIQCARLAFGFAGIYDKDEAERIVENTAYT

[4] = molecular target: T3, Redβ wt (phage lambda, UniProt P03698 1-261); test: as above; conditions: protein: recombinant; single strand
T3 sequence: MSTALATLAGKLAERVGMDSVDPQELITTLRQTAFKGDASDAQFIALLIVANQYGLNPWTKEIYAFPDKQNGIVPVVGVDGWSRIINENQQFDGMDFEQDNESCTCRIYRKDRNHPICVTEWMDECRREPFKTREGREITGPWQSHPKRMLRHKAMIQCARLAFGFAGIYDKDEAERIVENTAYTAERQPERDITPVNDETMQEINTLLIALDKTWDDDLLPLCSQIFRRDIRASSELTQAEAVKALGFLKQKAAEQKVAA

[5] = molecular target: T2, C3Redβ; test: EMSA; sequential addition of strands; annealed nucleoprotein filament; EMSA: 10 uM protein, 1 uM DNA, 20 mM Tris-HCl pH 7.5, 10 mM NaCl, 10 mM MgCl2, 37 C 30 min (+30 min after complementary oligo), 1.2-1.6% agarose, 2x TBE; conditions: protein: recombinant; tags: Strep-tag II; N-terminal per Methods, C-terminal per legends; label: 5'-Cy3 on one strand, 5'-Cy5 on the other; 49 bp, 5' overhang 1 nt at each end as printed; annealed by the protein
[6] = molecular target: T3, Redβ wt; test: as above; conditions: protein: recombinant; label: 5'-Cy3 on one strand, 5'-Cy5 on the other; 49 bp, 5' overhang 1 nt at each end as printed; annealed by the protein

B1: Redα, Strep-tag II tagged, purified, P03697 1-226 (enzyme)
chain: MTPDIILQRTGIDVRAVEQGDDAWHKLRLGVITASEVHNVIAKPRSGKKWPDMKMSYFHTLLAEVCTGVAPEVNAKALAWGKQYENDARTLFEFTSGVNVTESPIIYRDESMRTACSPDGLCSDGNGLELKCPFTSRDFMKFRLGGFEAIKSAYMAQVQYSMWVTRKNAWYFANYDPRMKREGLHYVVIERDEKYMASFDEIVPEFIEKMDEALAEIGFVFGEQWR
B1 gave a Kd [1] of 7.9 µM and a dH [1] of -9.84 kcal/mol.

B2: N1Redβ (20–261), Strep-tag II tagged, purified (domain or fragment, λ phage, UniProt P03698 20-261, looked up)
chain: SVDPQELITTLRQTAFKGDASDAQFIALLIVANQYGLNPWTKEIYAFPDKQNGIVPVVGVDGWSRIINENQQFDGMDFEQDNESCTCRIYRKDRNHPICVTEWMDECRREPFKTREGREITGPWQSHPKRMLRHKAMIQCARLAFGFAGIYDKDEAERIVENTAYTAERQPERDITPVNDETMQEINTLLIALDKTWDDDLLPLCSQIFRRDIRASSELTQAEAVKALGFLKQKAAEQKVAA
notes: Redβ of λ phage, residues 20-261 (N-terminal truncation N1); also called N1 deletion; not shown: Strep-tag II, C-terminal, kept
In the case of B2, the “Dist (%) of Species 3 (1 subunit, monomer)” value (from here on “Dist (%)”) [2] is reported as 7.4%.

CCATCCGCAAAAATCGAGCTATGCAGGGCGATTCTGCTCTAAGCCATCCG (ssDNA) [Cy3 50-mer ssDNA]: binds [3]; binds [4].

B3: 50-mer complementary pair, sequentially added (dsDNA)
DNA 1: CCATCCGCAAAAATCGAGCTATGCAGGGCGATTCTGCTCTAAGCCATCCG
DNA 2: GCGGATGGCTTAGAGCAGAATCGCCCTGCATAGCTCGATTTTTGCGGATG
B3: binds [5]; binds [6].

B4: wt Redβ, Strep-tag II tagged, purified (natural protein, λ phage, UniProt P03698 1-261, looked up)
chain: MSTALATLAGKLAERVGMDSVDPQELITTLRQTAFKGDASDAQFIALLIVANQYGLNPWTKEIYAFPDKQNGIVPVVGVDGWSRIINENQQFDGMDFEQDNESCTCRIYRKDRNHPICVTEWMDECRREPFKTREGREITGPWQSHPKRMLRHKAMIQCARLAFGFAGIYDKDEAERIVENTAYTAERQPERDITPVNDETMQEINTLLIALDKTWDDDLLPLCSQIFRRDIRASSELTQAEAVKALGFLKQKAAEQKVAA
notes: Redβ, single strand annealing protein of λ phage; the ORF cloned into pASK-IBA2; 261 residues by the printed limits of the truncations; also called wild type Redβ; not shown: Strep-tag II, C-terminal, kept
In the case of B4, the “Dist (%)” value [2] is reported as 68.2%.

B5: C3Redβ (1–185), Strep-tag II tagged, purified (domain or fragment, λ phage, UniProt P03698 1-185, looked up)
chain: MSTALATLAGKLAERVGMDSVDPQELITTLRQTAFKGDASDAQFIALLIVANQYGLNPWTKEIYAFPDKQNGIVPVVGVDGWSRIINENQQFDGMDFEQDNESCTCRIYRKDRNHPICVTEWMDECRREPFKTREGREITGPWQSHPKRMLRHKAMIQCARLAFGFAGIYDKDEAERIVENTAYT
notes: Redβ of λ phage, residues 1-185 (C-terminal truncation C3); also called C3 deletion; C3-truncated Redβ; not shown: Strep-tag II, C-terminal, kept
With B5 the “Dist (%)” value [2] was 9.3%.
